In publication PMC3857245:

Molecular target: 3xFLAG-tagged rat KCNQ2 (rat) (UniProt O88943)
Test: co-IP; KCNQ2-CaM complex immunoprecipitated in calcium (–) condition, the resin then exposed to 500 µM Ca2+; time course of CaM left on KCNQ2

Chain of UniProt O88943 (O88943 whole entry): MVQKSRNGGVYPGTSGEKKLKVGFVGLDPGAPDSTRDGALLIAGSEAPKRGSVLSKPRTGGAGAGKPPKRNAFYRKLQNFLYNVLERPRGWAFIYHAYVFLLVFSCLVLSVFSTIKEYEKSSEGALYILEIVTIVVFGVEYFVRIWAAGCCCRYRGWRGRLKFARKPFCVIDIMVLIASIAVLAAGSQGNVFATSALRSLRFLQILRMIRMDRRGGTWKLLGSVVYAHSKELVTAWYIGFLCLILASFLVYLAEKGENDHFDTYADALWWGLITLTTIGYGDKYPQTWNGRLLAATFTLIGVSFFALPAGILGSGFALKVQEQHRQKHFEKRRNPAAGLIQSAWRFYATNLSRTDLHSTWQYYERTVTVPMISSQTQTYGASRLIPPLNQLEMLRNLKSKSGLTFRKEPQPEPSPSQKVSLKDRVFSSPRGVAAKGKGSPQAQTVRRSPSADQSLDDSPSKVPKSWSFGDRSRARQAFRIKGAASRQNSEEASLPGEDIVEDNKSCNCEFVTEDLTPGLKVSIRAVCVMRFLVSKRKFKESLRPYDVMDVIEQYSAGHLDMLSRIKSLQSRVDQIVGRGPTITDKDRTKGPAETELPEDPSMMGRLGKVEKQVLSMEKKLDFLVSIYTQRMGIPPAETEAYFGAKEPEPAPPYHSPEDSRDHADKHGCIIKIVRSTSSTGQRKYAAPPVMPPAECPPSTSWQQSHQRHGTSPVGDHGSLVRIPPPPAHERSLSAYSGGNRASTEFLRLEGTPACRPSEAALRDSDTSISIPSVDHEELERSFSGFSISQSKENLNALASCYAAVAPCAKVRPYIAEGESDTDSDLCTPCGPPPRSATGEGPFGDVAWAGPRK

time constant of calcium-induced dissociation: 20.7 s
Substance: V5-epitope tagged calmodulin (from UniProt P0DP23 1-149) (natural protein)
